Consider three compounds from PMC9321335, “Palmitic Acid-Conjugated Radiopharmaceutical for Integrin αvβ3-Targeted Radionuclide Therapy” (Pharmaceutics, 2022).

Where two headings read alike, the source gives them in different places.

As a reminder, the tissue uptake is the percentage of the injected dose found per gram of tissue. A word on the logD: it is lipophilicity at a set pH, counting ionised and neutral species.

For data set [1] the following is noted: cited from earlier work. The source says:
This may be caused by several factors: first, palmitic acid can reversibly bind to albumin to prolong the blood retention time and reduce the elimination of peptides; second, ^177Lu-palm-3PRGD2 is amphiphilic and may self-assemble to form tiny nanoparticles (possibly nanospheres or nanofibers) with larger molecular sizes, resulting in lo ...

On the set-up of data set [2]: species or system C57BL/6 mice. The conditions noted are these: mouse, in vivo. As to the method: Female KM mice were randomly divided into three groups (n = 5). […] Blood samples obtained from the canthus vein were collected at different time points post injection (p.i.), weighed, and evaluated using a γ-counter. The results are presented as the percentage injected activity per gram (%IA/g). Nonlinear regression (curve fit) followed by two phase decay was performed using GraphPad Prism version 9.0.0 for Windows, GraphPad Software, San Diego, CA, USA, www.graphpad.com (accessed on 22 May 2022). And then the half-lives values were calculated and determined. Blood clearance studies were performed in normal KM mice. […] Blood clearance studies were also performed in C57BL/6 mice.

A short description of data set [3]: in vivo. The conditions noted are these: C57BL/6, mouse, 0.74 MBq, total radioactivity. The method, then:
(§1) Mice bearing MC38 xenografts were randomly divided into 10 groups (n = 4). The mice in five groups were administered 0.74 MBq/20 µCi of ^177Lu-Palm-3PRGD2 and sacrificed at 1, 4, 12, 24, and 72 h p.i. The mice on one group was injected with 0.74 MBq/20 µCi of ^177Lu-Palm-3PRGD2 and 500 μg (242 nmol) 3PRGD2 as a blocking agent and sacrificed at 1 h p.i. […] Tumors and major organs were harvested, weighed and measured for radioactivity using a γ-counter. The organ uptake was calculated as the percentage injected activity per gram (%IA/g). The effective absorbed dose in humans estimated from mouse biodistribution data by using a dedicated software (OLINDA 1.0).

On the set-up of data set [4]: species or system KM mice. The conditions noted are these: mouse, in vivo, iv. As to the method:
Female KM mice were randomly divided into three groups (n = 5). […] Blood samples obtained from the canthus vein were collected at different time points post injection (p.i.), weighed, and evaluated using a γ-counter. The results are presented as the percentage injected activity per gram (%IA/g). Nonlinear regression (curve fit) followed by two phase decay was performed using GraphPad Prism version 9.0.0 for Windows, GraphPad Software, San Diego, CA, USA, www.graphpad.com (accessed on 22 May 2022). And then the half-lives values were calculated and determined.

A short description of data set [5]: physchem. In kind it is physicochemical. As to the method:
Briefly, the radiopharmaceuticals were prepared and purified with Sep-Pak-C18 cartridges and then dissolved in a mixed solution of 5 mL n-octanol and 5 mL PBS. After vortexing for 1 h, the mixture was centrifuged at 10,000 rpm for 10 min. Samples (100 μL, n = 4) from the n-octanol and PBS components were collected and counted using a γ-counter. The […] were calculated as the logarithm of the n-octanol/PBS ratio.

The subject of data set [6] is MC38 tumor-bearing mice. The experiment in a line: in vivo. Conditions: mouse. The method, then:
as §1

The conditions of data set [7]: reportedly; cited from earlier work. The source says:
Albumin makes up approximately 55–60% of serum proteins, and its biological half-life is reportedly 19 days, which makes it possible to leverage the long circulation half-life of albumin to produce long-acting therapeutics.

The mark [8] stands for this setting: Tumor-to-tissue ratio, Intestine.

With `N=C(N)NCCC[C@@H]1NC(=O)[C@H](CCCCNC(=O)CCOCCOCCOCCOCCNC(=O)CC[C@H](NC(=O)CCOCCOCCOCCOCCNC(=O)CN2CCN(CC(=O)O)CCN(CC(=O)O)CCN(CC(=O)O)CC2)C(=O)NCCOCCOCCOCCOCCC(=O)NCCCC[C@@H]2NC(=O)[C@@H](Cc3ccccc3)NC(=O)[C@H](CC(=O)O)NC(=O)CNC(=O)[C@H](CCCNC(=N)N)NC2=O)NC(=O)[C@@H](Cc2ccccc2)NC(=O)[C@H](CC(=O)O)NC(=O)CNC1=O` [^177Lu-3PRGD2, [^177Lu]Lu-DOTA-3PRGD2, metal not drawn], the Effective absorbed dose in data set [1] is 1.35 × 10^−2 mSv/MBq. For the same compound, the “Half-Life (T1/2α)” value in data set [2] was 1.06 min; in data set [4] it was 1.94 min. For the same compound, the “Half-Life (T1/2β)” value in data set [2] amounted to 14.54 min; in data set [4] it was 11.81 min. Also, the tissue uptake at 4 h turned out to be 0.42 ± 0.26 %ID/g in data set [3] (Blood uptake); 1.41 %ID/g in data set [3] (Bone uptake); 0.09 %ID/g in data set [3] (Brain uptake); 0.75 %ID/g in data set [3] (Heart uptake); 9.85 %ID/g in data set [3] (Intestine uptake); 2.95 %ID/g in data set [3] (Liver uptake). Moreover, the tissue uptake at 4 h in data set [3] (Lung uptake) is 1.73 %ID/g; in data set [3] (Muscle uptake) it was 0.52 %ID/g; in data set [3] (Spleen uptake) it was 2.65 %ID/g; in data set [3] (Stomach uptake), 2.96 %ID/g; in data set [3] (Tumor uptake) it was 6.22 %ID/g. For the same compound, the tissue uptake at 12 h in data set [3] (Blood uptake) was determined as 0.32 %ID/g; in data set [3] (Bone uptake), 1.46 %ID/g; in data set [3] (Brain uptake) it was 0.11 %ID/g; in data set [3] (Heart uptake), 0.63 %ID/g; in data set [3] (Intestine uptake) it was 7.97 %ID/g; in data set [3] (Kidney uptake), 4.48 %ID/g. Moreover, the tissue uptake at 12 h in data set [3] (Liver uptake) worked out at 1.93 %ID/g; in data set [3] (Lung uptake) it was 1.46 %ID/g; in data set [3] (Muscle uptake) it was 0.64 %ID/g; in data set [3] (Spleen uptake), 1.89 %ID/g; in data set [3] (Stomach uptake), 2.39 %ID/g; in data set [3] (Tumor uptake), 4.11 %ID/g. Besides, the tissue to tissue ratio at 4 h in data set [3] (Tumor-to-tissue ratio, Blood) came to 20.3; in data set [3] (Tumor-to-tissue ratio, Bone), 4.41; in data set [3] (Tumor-to-tissue ratio, Brain), 68.7; in data set [3] (Tumor-to-tissue ratio, Heart) it was 8.31; in data set [3] (setting [8]), 0.66; in data set [3] (Tumor-to-tissue ratio, Liver), 2.11. The tissue to tissue ratio at 4 h in data set [3] (Tumor-to-tissue ratio, Lung) came out at 3.6; in data set [3] (Tumor-to-tissue ratio, Muscle), 12; in data set [3] (Tumor-to-tissue ratio, Spleen) it was 2.36; in data set [3] (Tumor-to-tissue ratio, Stomach), 2.1; in data set [3] (in vivo) it was 1.27. The tissue to tissue ratio at 12 h in data set [3] (Tumor-to-tissue ratio, Blood) stood at 14.2; in data set [3] (Tumor-to-tissue ratio, Bone) it was 2.82; in data set [3] (Tumor-to-tissue ratio, Brain) it was 39.9; in data set [3] (Tumor-to-tissue ratio, Heart), 6.53; in data set [3] (setting [8]), 0.52; in data set [3] (Tumor-to-tissue ratio, Liver), 2.13. The tissue to tissue ratio at 12 h was found to be 2.84 in data set [3] (Tumor-to-tissue ratio, Lung); 6.6 in data set [3] (Tumor-to-tissue ratio, Muscle); 2.22 in data set [3] (Tumor-to-tissue ratio, Spleen); 1.72 in data set [3] (Tumor-to-tissue ratio, Stomach); 0.92 in data set [3] (in vivo). This compound returned a logD in data set [5] of -4.05 ± 0.14.

Regarding `CCCCCCCCCCCCCCCC(=O)N[C@@H](CCC(=O)NCCCC[C@H](NC(=O)CN1CCN(CC(=O)O)CCN(CC(=O)O)CCN(CC(=O)O)CC1)C(=O)O)C(=O)O` [^177Lu-Palm, [^177Lu]Lu-DOTA-Palm, metal not drawn], the “Tumor-to-tissue ratio, Brain” value in data set [6] worked out at 14.69. For the same compound, in data set [4], the “Half-Life (T1/2α)” value stood at 3.33 min and the “Half-Life (T1/2β)” value is 29.82 min.

For the compound Albumin, in data set [7], the Biological half-life is 19 days.
